Reference: patent US10221225B2, “Peptides and combination of peptides and scaffolds thereof for use in immunotherapy against colorectal carcinoma (CRC) and other cancers” (immatics biotechnologies GmbH, priority 2015, dated 2019)

Biological target: HLA-A*02:01 (Homo sapiens, UniProt P04439, D140Y/D185E/D98H/E176V/E277Q/G131W/G231S/I119V/I121R/I166T/I218V/L300P/L318F/N151K/N90K/P208A/P217A/Q86G/Q94H/R138H/R169H/T345S)
Assay: MHC binding assay (UV-ligand exchange, beta2m ELISA, peptide exchange yield)
Settings: MHC class I binding score; binding to HLA-A*02:01 ranged by peptide exchange yield (UV-ligand exchange, β2m ELISA)
Excerpt: Candidate peptides for T cell based therapies according to the present invention were further tested for their MHC binding capacity (affinity). The individual peptide-MHC complexes were produced by UV-ligand exchange, where a UV-sensitive peptide is cleaved upon UV-irradiation, and exchanged with the peptide of interest as analyzed. Only peptide candidates that can effectively bind and stabilize the peptide-receptive MHC molecules prevent dissociation of the MHC complexes. To determine the yield of the exchange reaction, an ELISA was performed based on the detection of the light chain (β2m) of stabilized MHC complexes. The assay was performed as generally described in Rodenko et al. (Rodenko et al., 2006).
96 well MAXISorp plates (NUNC) were coated over night with 2 ug/ml streptavidin in PBS at room temperature, washed 4× and blocked for 1 h at 37° C. in 2% BSA containing blocking buffer. Refolded HLA-A*02:01/MLA-001 monomers served as standards, covering the range of 15-500 ng/ml. Peptide-MHC monomers of the UV-exchange reaction were diluted 100 fold in blocking buffer. Samples were incubated for 1 h at 37° C., washed four times, incubated with 2 ug/ml HRP conjugated anti-β2m for 1 h at 37° C., washed again and detected with TMB solution that is stopped with […]. Absorption was measured at 450 nm. Candidate peptides that show a high exchange yield (preferably higher than 50%, most preferred higher than 75%) are generally preferred for a generation and production of antibodies or fragments thereof, and/or T cell receptors or fragments thereof, as they show sufficient avidity to the MHC molecules and prevent dissociation of the MHC complexes.

Peptide exchange	Substance
″+″ (≥10% = +)	30 (GLSSAYGGL; listed as Homo sapiens) [compound 30]
″+++″ (≥50 = +++)	33 (ALWEKNTHL; listed as Homo sapiens) [compound 33]
″+++″ (≥50 = +++)	34 (ILLEKSVSV; listed as Homo sapiens) [compound 34]
″+++″ (≥50 = +++)	35 (KLLDLTVRI; listed as Homo sapiens) [compound 35]
″+++″ (≥50 = +++)	36 (GLLESPSIFNFTA; listed as Homo sapiens) [compound 36]
″++″ (≥20% = ++)	40 (ALSNVIHKV; listed as Homo sapiens) [compound 40]
″++″ (≥20% = ++)	41 (ILDDSFKLL; listed as Homo sapiens) [compound 41]
″++″ (≥20% = ++)	43 (TLDAAQPRV; listed as Homo sapiens) [compound 43]
″+++″ (≥50 = +++)	44 (SLESKLTSV; listed as Homo sapiens) [compound 44]
″+++″ (≥50 = +++)	45 (ALAELLHGA; listed as Homo sapiens) [compound 45]
″+++″ (≥50 = +++)	46 (GLDDRYSLV; listed as Homo sapiens) [compound 46]
″++″ (≥20% = ++)	48 (FLDASDPAL; listed as Homo sapiens) [compound 48]
″+++″ (≥50 = +++)	50 (TLMAEMHVV; listed as Homo sapiens) [compound 50]
″++″ (≥20% = ++)	51 (QVWEIQHTV; listed as Homo sapiens) [compound 51]
″++″ (≥20% = ++)	52 (ALDSSNSMQTI; listed as Homo sapiens) [compound 52]
″+++″ (≥50 = +++)	53 (FLLGSEIKL; listed as Homo sapiens) [compound 53]
″+++″ (≥50 = +++)	54 (ALLNGEYLLAA; listed as Homo sapiens) [compound 54]
″++″ (≥20% = ++)	56 (VLFTDEGVPKFL; listed as Homo sapiens) [compound 56]
″+++″ (≥50 = +++)	57 (NLLEKENYL; listed as Homo sapiens) [compound 57]

The next lines start with the substance.

Substance	Peptide exchange
4 (RLAELTVDEFL; listed as Homo sapiens) [compound 4]	″+++″ (≥50 = +++)
6 (FLAELPGSLSL; listed as Homo sapiens) [compound 6]	″+++″ (≥50 = +++)
8 (ALMLQGVDLL; listed as Homo sapiens) [compound 8]	″+++″ (≥50 = +++)
14 (FLDKPEDVLL; listed as Homo sapiens) [compound 14]	″++″ (≥20% = ++)
15 (LQLDKEFQL; listed as Homo sapiens) [compound 15]	″+++″ (≥50 = +++)
16 (VLVDQSWVL; listed as Homo sapiens) [compound 16]	″+++″ (≥50 = +++)
20 (YLKDGDVML; listed as Homo sapiens) [compound 20]	″+++″ (≥50 = +++)
23 (FLDANGHFV; listed as Homo sapiens) [compound 23]	″+++″ (≥50 = +++)
24 (VLDGVLMEL; listed as Homo sapiens) [compound 24]	″+++″ (≥50 = +++)
25 (SLADRLIGV; listed as Homo sapiens) [compound 25]	″++++″ (≥75% = ++++)
26 (GLASKENFSNVSL; listed as Homo sapiens) [compound 26]	″++″ (≥20% = ++)
27 (LLADEDSSYL; listed as Homo sapiens) [compound 27]	″++″ (≥20% = ++)
28 (ALTEIQEFI; listed as Homo sapiens) [compound 28]	″++++″ (≥75% = ++++)
29 (QMLDVAIRV; listed as Homo sapiens) [compound 29]	″+++″ (≥50 = +++)
